Experiments:
mKv1.1 channel (mouse) = mKv1.1 channel (mouse) (UniProt P16388); test: cell-based or functional assay
mKv1.3 channel (mouse) = mKv1.3 channel (mouse) (UniProt P16390); test: cell-based or functional assay
Sequence of mKv1.3 channel (mouse) (P16390 whole entry): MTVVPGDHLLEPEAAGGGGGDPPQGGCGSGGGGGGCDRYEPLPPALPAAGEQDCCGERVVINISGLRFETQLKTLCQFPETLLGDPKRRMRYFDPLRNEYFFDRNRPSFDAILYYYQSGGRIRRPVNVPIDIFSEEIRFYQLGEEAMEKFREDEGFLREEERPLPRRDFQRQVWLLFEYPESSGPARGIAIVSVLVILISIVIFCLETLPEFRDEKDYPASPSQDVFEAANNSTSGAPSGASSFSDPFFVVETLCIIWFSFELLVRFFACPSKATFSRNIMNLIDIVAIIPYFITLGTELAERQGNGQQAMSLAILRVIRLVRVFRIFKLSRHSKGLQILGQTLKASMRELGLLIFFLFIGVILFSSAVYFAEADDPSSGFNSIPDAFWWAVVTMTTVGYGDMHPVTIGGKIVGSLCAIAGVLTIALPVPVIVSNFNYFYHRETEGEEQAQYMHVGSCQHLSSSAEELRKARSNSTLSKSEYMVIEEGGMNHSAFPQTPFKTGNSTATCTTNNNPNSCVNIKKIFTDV

Sequence of ShK (P29187 whole entry): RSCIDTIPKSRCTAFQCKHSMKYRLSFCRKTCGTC
Sequence of mKv1.1 channel (mouse) (P16388 whole entry): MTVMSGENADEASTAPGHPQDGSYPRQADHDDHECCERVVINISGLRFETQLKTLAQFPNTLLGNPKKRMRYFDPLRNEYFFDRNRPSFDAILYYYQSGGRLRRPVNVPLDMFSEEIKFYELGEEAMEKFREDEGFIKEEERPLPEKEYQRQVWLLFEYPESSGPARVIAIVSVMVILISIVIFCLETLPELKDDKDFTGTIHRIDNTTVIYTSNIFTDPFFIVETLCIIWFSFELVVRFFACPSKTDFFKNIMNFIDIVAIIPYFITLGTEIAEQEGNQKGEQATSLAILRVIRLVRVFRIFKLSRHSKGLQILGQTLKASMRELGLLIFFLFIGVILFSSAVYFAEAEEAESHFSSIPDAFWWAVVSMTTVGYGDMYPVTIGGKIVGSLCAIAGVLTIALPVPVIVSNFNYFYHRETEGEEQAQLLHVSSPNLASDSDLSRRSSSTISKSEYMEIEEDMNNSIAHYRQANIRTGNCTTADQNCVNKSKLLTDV
Sequence of ShK-K-amide (P29187 whole entry): as the sequence (P29187 whole entry) above

In the case of “ShK-amide (from UniProt P29187 1-35) (peptide)”, the IC50 of current block, whole-cell patch-clamp (mKv1.1 channel (mouse)) is reported as 37 pM and the IC50 of current block, whole-cell patch-clamp (mKv1.3 channel (mouse)) is reported as 35 pM.

“ShK-K-amide (from UniProt P29187 1-35) (peptide)” was tested, and the IC50 of current block, whole-cell patch-clamp (mKv1.3 channel (mouse)) was 26 pM.

“ShK (from UniProt P29187 1-35) (peptide)” gave an IC50 of current block, whole-cell patch-clamp (mKv1.1 channel (mouse)) of 23 pM and an IC50 of current block, whole-cell patch-clamp (mKv1.3 channel (mouse)) of 9 pM.

Source: patent US20160264634A1
